± gives the uncertainty stated by the source.
Experiment: protein stability index of a GFP-peptide fusion (yeast GPS) (PSI 1-4); higher = more stable; sorted into four equal gates, so the index is relative within each strain
How it was run: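 Sequencing reads from sorted gates were used to score each peptide. The library consisted of tiled 17-residue yeast protein peptides fused downstream of GFP on a Cherry-expressing plasmid, pooled and carried in yeast. Mid-log cultures in leucine-free medium were split into four equal gates by GFP/Cherry ratio, and each gate's plasmids were PCR-amplified and Illumina-sequenced. The protein stability index adds up, over all gates, the read frequency multiplied by the gate number.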

DAVEGVSECIILGQTMS [RPO31]
protein stability index (doa10∆): 1.7 ± 0.21
protein stability index (pdr5∆): 1.46 ± 0.077
protein stability index (san1∆): 1.45 ± 0.12
protein stability index (ubr1∆): 1.56 ± 0.13

LVDTPSNNTAATADTTH [NUT1]
protein stability index (san1∆): 3.21 ± 0.059
protein stability index (ubr1∆): 3.17 ± 0.082

IPMDFIRNVLVTVDQYV [SSN2]
protein stability index (doa10∆): 1.13 ± 0.047
protein stability index (pdr5∆): 1.58 ± 0.056
protein stability index (san1∆): 1.33 ± 0.091
protein stability index (ubr1∆): 1.63 ± 0.06

DTLDPALLRPGRLDRKV [RPT4]
protein stability index (doa10∆): 3.02 ± 0.26

KVESQETLNDTIERSLI [YCS4]
protein stability index (doa10∆): 2.73 ± 0.092
protein stability index (pdr5∆): 2.99 ± 0.071
protein stability index (san1∆): 2.96 ± 0.072
protein stability index (ubr1∆): 2.97 ± 0.057

IPTLAIDSVEVETNTTV [RPB3]
protein stability index (doa10∆): 2.82 ± 0.22
protein stability index (pdr5∆): 2.44 ± 0.16
protein stability index (san1∆): 2.94 ± 0.083
protein stability index (ubr1∆): 2.98 ± 0.059

EKACQVLKYMLLSKIML [RPN6]
protein stability index (doa10∆): 1.76 ± 0.049
protein stability index (pdr5∆): 1.49 ± 0.048
protein stability index (san1∆): 1.13 ± 0.1
protein stability index (ubr1∆): 1.41 ± 0.031

TRHQNTIHAKRKIVFRC [RPN4]
protein stability index (doa10∆): 2.75 ± 0.052
protein stability index (pdr5∆): 2.85 ± 0.059
protein stability index (san1∆): 2.8 ± 0.07
protein stability index (ubr1∆): 2.64 ± 0.052

RYLAVTLQDIGFYQIKK [YMR129W/POM152]
protein stability index (doa10∆): 2.53 ± 0.046
protein stability index (pdr5∆): 2.65 ± 0.043
protein stability index (san1∆): 2.73 ± 0.068
protein stability index (ubr1∆): 2.62 ± 0.043

LESGKETALEFLEKEKQ [SMC4]
protein stability index (doa10∆): 3.62 ± 0.12
protein stability index (pdr5∆): 3.46 ± 0.11
protein stability index (san1∆): 3.17 ± 0.071
protein stability index (ubr1∆): 3.48 ± 0.079

VVPNEKADDDSVTIISA [ASC1]
protein stability index (doa10∆): 2.98 ± 0.072
protein stability index (pdr5∆): 2.9 ± 0.082
protein stability index (san1∆): 3.05 ± 0.049
protein stability index (ubr1∆): 2.91 ± 0.076

QDSILIIYPRSQTTLVQ [ARP9]
protein stability index (doa10∆): 2.6 ± 0.16
protein stability index (pdr5∆): 1.81 ± 0.064
protein stability index (san1∆): 2.23 ± 0.079
protein stability index (ubr1∆): 2.46 ± 0.067

GAEVLIKGSKLSLGEAF [COR1]
protein stability index (san1∆): 2.32 ± 0.15
protein stability index (ubr1∆): 2.37 ± 0.1

DPFSIYGFSNKEYISRL [SNF5]
protein stability index (doa10∆): 1.89 ± 0.066
protein stability index (pdr5∆): 2.39 ± 0.15
protein stability index (san1∆): 2.69 ± 0.071
protein stability index (ubr1∆): 2.34 ± 0.075

VSGDAAALFRLHKFLTK [SWI3]
protein stability index (doa10∆): 2.92 ± 0.14
protein stability index (pdr5∆): 2.6 ± 0.15
protein stability index (san1∆): 2.72 ± 0.098
protein stability index (ubr1∆): 3.08 ± 0.11

SIDDHPYNLNLFPNELY [RPC31]
protein stability index (doa10∆): 2.14 ± 0.048
protein stability index (pdr5∆): 2.53 ± 0.061
protein stability index (san1∆): 2.69 ± 0.088
protein stability index (ubr1∆): 2.68 ± 0.064

NTNNNNTNNNNNPANNT [SWI1]
protein stability index (doa10∆): 3.35 ± 0.044
protein stability index (pdr5∆): 3.354 ± 0.033
protein stability index (san1∆): 3.409 ± 0.027
protein stability index (ubr1∆): 3.3 ± 0.044

KASKEIKKVICGAWEPA [SIR3]
protein stability index (doa10∆): 2.15 ± 0.25
protein stability index (ubr1∆): 2.67 ± 0.11

AIQMVDPASFYLFDEID [SMC3]
protein stability index (doa10∆): 1.95 ± 0.042
protein stability index (pdr5∆): 2.32 ± 0.049
protein stability index (san1∆): 2.66 ± 0.067
protein stability index (ubr1∆): 2.07 ± 0.045

ITHQLNNKFANKIIPNV [RPC25]
protein stability index (doa10∆): 2.72 ± 0.069
protein stability index (pdr5∆): 3.03 ± 0.08
protein stability index (san1∆): 2.93 ± 0.053
protein stability index (ubr1∆): 3.01 ± 0.082

IFKGIGGNFKDLSTLVH [GAL11]
protein stability index (doa10∆): 2.07 ± 0.071
protein stability index (pdr5∆): 1.74 ± 0.042
protein stability index (san1∆): 1.83 ± 0.073
protein stability index (ubr1∆): 1.85 ± 0.067

RMLEEAIDHLKAELEKQ [YIL149C/MLP2]
protein stability index (doa10∆): 3.25 ± 0.056
protein stability index (pdr5∆): 3.21 ± 0.063
protein stability index (san1∆): 3.32 ± 0.073
protein stability index (ubr1∆): 3.12 ± 0.053

ALLRENQDSVKTYALES [RPN2]
protein stability index (doa10∆): 3.35 ± 0.15
protein stability index (pdr5∆): 2.56 ± 0.16
protein stability index (san1∆): 2.56 ± 0.12
protein stability index (ubr1∆): 2.94 ± 0.1

PSTTLFNFGGKSDTVTS [YOR098C/NUP1]
protein stability index (doa10∆): 2.51 ± 0.065
protein stability index (pdr5∆): 2.32 ± 0.075
protein stability index (san1∆): 2.4 ± 0.073
protein stability index (ubr1∆): 2.92 ± 0.059

NNPLVQKKNFLFKPLNK [ARP7]
protein stability index (doa10∆): 2.33 ± 0.23
protein stability index (pdr5∆): 2.51 ± 0.14
protein stability index (san1∆): 2.2 ± 0.28

NVSLIKIEGVATPQEAQ [RPL33B]
protein stability index (doa10∆): 2.76 ± 0.07
protein stability index (pdr5∆): 2.78 ± 0.096
protein stability index (san1∆): 2.92 ± 0.074
protein stability index (ubr1∆): 2.61 ± 0.055

QKLWLLECQLFPQGLNI [SSN8]
protein stability index (doa10∆): 2.16 ± 0.068
protein stability index (pdr5∆): 1.92 ± 0.06
protein stability index (san1∆): 1.66 ± 0.13
protein stability index (ubr1∆): 2.11 ± 0.076

AAREKKIRELEAELSST [YIL149C/MLP2]
protein stability index (doa10∆): 2.46 ± 0.29
protein stability index (pdr5∆): 3.25 ± 0.25
protein stability index (ubr1∆): 2.89 ± 0.15

VEVDITLSPNVTDSSLL [GRR1]
protein stability index (doa10∆): 2.83 ± 0.074
protein stability index (pdr5∆): 2.43 ± 0.068
protein stability index (san1∆): 2.99 ± 0.053
protein stability index (ubr1∆): 2.82 ± 0.046

LKYHDFLRKATAFNKTR [RPL16B]
protein stability index (doa10∆): 2.98 ± 0.047
protein stability index (pdr5∆): 3.06 ± 0.054
protein stability index (san1∆): 2.77 ± 0.053
protein stability index (ubr1∆): 3.08 ± 0.036

LIRFDESITKAMEFIFG [SMC2]
protein stability index (doa10∆): 2.45 ± 0.082
protein stability index (pdr5∆): 2.52 ± 0.17
protein stability index (san1∆): 2.35 ± 0.16

IQCQIDKLYIHFVQEEP [RGR1]
protein stability index (doa10∆): 2.09 ± 0.093
protein stability index (pdr5∆): 2.55 ± 0.093
protein stability index (san1∆): 2.85 ± 0.083
protein stability index (ubr1∆): 3.15 ± 0.095

DAGVTFNKEQLNKFKKA [ECM29]
protein stability index (doa10∆): 1.83 ± 0.053
protein stability index (pdr5∆): 2.13 ± 0.11
protein stability index (san1∆): 1.55 ± 0.14
protein stability index (ubr1∆): 2.36 ± 0.059

KDLDGWQVIITDDQGRV [SIR3]
protein stability index (doa10∆): 3.15 ± 0.093
protein stability index (pdr5∆): 3.03 ± 0.077
protein stability index (san1∆): 3.21 ± 0.068
protein stability index (ubr1∆): 3.35 ± 0.064

KFPATNVTTILDEIFSG [ECM29]
protein stability index (doa10∆): 2.54 ± 0.078
protein stability index (pdr5∆): 2.93 ± 0.066
protein stability index (san1∆): 2.28 ± 0.06
protein stability index (ubr1∆): 2.7 ± 0.063

NLQPISTPENVPRLFDL [SMC4]
protein stability index (doa10∆): 2.89 ± 0.11
protein stability index (pdr5∆): 2.93 ± 0.084
protein stability index (san1∆): 2.6 ± 0.12
protein stability index (ubr1∆): 2.48 ± 0.064

LLIISCIIFITFEFINI [YML031W/NDC1]
protein stability index (doa10∆): 1.29 ± 0.038
protein stability index (pdr5∆): 1.43 ± 0.038
protein stability index (san1∆): 1.28 ± 0.079
protein stability index (ubr1∆): 1.28 ± 0.029

RKVSGPRALQPSQFGML [RET1]
protein stability index (doa10∆): 2.36 ± 0.089
protein stability index (pdr5∆): 1.67 ± 0.059
protein stability index (san1∆): 2.46 ± 0.12
protein stability index (ubr1∆): 2.56 ± 0.09

RQFVSNVRSVIRSSRSR [RPP1]
protein stability index (doa10∆): 3.08 ± 0.063
protein stability index (pdr5∆): 3.08 ± 0.071
protein stability index (san1∆): 2.91 ± 0.064
protein stability index (ubr1∆): 3.09 ± 0.06

KVSSASAAASESDVAKQ [RPL16B]
protein stability index (doa10∆): 2.93 ± 0.067
protein stability index (pdr5∆): 2.79 ± 0.055
protein stability index (san1∆): 2.04 ± 0.09
protein stability index (ubr1∆): 2.97 ± 0.065

SYLEERERQVNEKLADL [RPC53]
protein stability index (doa10∆): 3.2 ± 0.14
protein stability index (pdr5∆): 3.42 ± 0.16
protein stability index (san1∆): 3.12 ± 0.17
protein stability index (ubr1∆): 3.19 ± 0.23

NATVNLAMEAILNELEV [YJR042W/NUP85]
protein stability index (doa10∆): 2.7 ± 0.11
protein stability index (pdr5∆): 3 ± 0.11
protein stability index (san1∆): 2.58 ± 0.12
protein stability index (ubr1∆): 2.55 ± 0.11

VETNTTVLADEFIAHRL [RPB3]
protein stability index (doa10∆): 3.05 ± 0.058
protein stability index (pdr5∆): 3.18 ± 0.054
protein stability index (san1∆): 3.19 ± 0.04
protein stability index (ubr1∆): 3.22 ± 0.033

SVNFFVSLLKKNWQNVG [RPL1A]
protein stability index (doa10∆): 1.19 ± 0.07
protein stability index (pdr5∆): 1.32 ± 0.063
protein stability index (san1∆): 1.25 ± 0.14
protein stability index (ubr1∆): 1.46 ± 0.063

MVDESDKKQQTIDEQSQ [RPN1]
protein stability index (doa10∆): 3.17 ± 0.16
protein stability index (pdr5∆): 3.25 ± 0.16
protein stability index (san1∆): 3.38 ± 0.11
protein stability index (ubr1∆): 3.43 ± 0.12

SAWIWPMDEETKLYFDV [RPC25]
protein stability index (doa10∆): 2.17 ± 0.075
protein stability index (pdr5∆): 2.4 ± 0.11
protein stability index (san1∆): 2.49 ± 0.092
protein stability index (ubr1∆): 2.41 ± 0.15

KDFIENVNNRFDNFLTE [BRN1]
protein stability index (doa10∆): 3.06 ± 0.086
protein stability index (pdr5∆): 3.04 ± 0.093
protein stability index (san1∆): 3.2 ± 0.068
protein stability index (ubr1∆): 2.88 ± 0.066

QGTGKKTASLGNSKDDL [ISW2]
protein stability index (doa10∆): 3.02 ± 0.12
protein stability index (pdr5∆): 2.9 ± 0.18
protein stability index (san1∆): 3.41 ± 0.057
protein stability index (ubr1∆): 3.42 ± 0.14

DIDAVNGAVGKREGKTR [ISW2]
protein stability index (doa10∆): 2.94 ± 0.13
protein stability index (pdr5∆): 3.47 ± 0.11
protein stability index (san1∆): 2.94 ± 0.1
protein stability index (ubr1∆): 3.4 ± 0.071

DSFIFDGTAKEVGDEAD [MED4]
protein stability index (doa10∆): 3.22 ± 0.062
protein stability index (pdr5∆): 3.31 ± 0.057
protein stability index (san1∆): 3.38 ± 0.05
protein stability index (ubr1∆): 3.11 ± 0.051

LPRYQELTKEEAMYKLQ [SMC3]
protein stability index (doa10∆): 3.02 ± 0.12
protein stability index (pdr5∆): 3.18 ± 0.087
protein stability index (san1∆): 3.43 ± 0.092
protein stability index (ubr1∆): 3.04 ± 0.073
